Assays:
[1] = system: basophilic granulocytes of birch pollen allergic individuals; experiment: Basophil histamine-release assay; type: cell-based, human; conditions: 10^−3-10 μg/ml
Protocol: Granulocytes were isolated from heparinized blood samples of 3 birch pollen allergic individuals by dextran sedimentation (Valent, P. et al. (1989) Interleukin 3 activates human blood basophils via high-affinity binding sites. Proc. Natl. Sci. USA 86, 5542-5547). […] Histamine released in the cell-free culture supernatant was measured by radioimmunoassay (Immunotech, Marseille, France). Total histamine was determined after freezing and thawing of cells.

[2] = system: IgE antibodies in sera from birch pollen allergic patients; experiment: ELISA detection of peptide- and rBet v 1-specific IgE antibodies; type: binding, human
Procedure, shortened: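 Sera from 60 birch pollen allergic patients (rhinoconjunctivitis and/or asthma; skin prick and CAP RAST characterized) plus one non-atopic individual, diluted 1:3, incubated overnight at 4 °C on coated plates. Bound IgE detected with 1:1000 alkaline-phosphatase-coupled mouse anti-human IgE.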

[3] = system: birch pollen allergic patients; experiment: Skin prick testing of allergic patients; type: in vivo, human
Protocol: SPTs were performed on the individuals forearms as described ([…]. et al. (1997) J. Clin Invest. 99, 1673-168; Dreborg S: (1989) J. Am. Acad. DerMatol. 21, 820-821). […] In addition standardized skin prick solutions (birch pollen extract and histamine) (Allergopharma, Reinbek, Germany) were tested. Reactions were recorded 20 minutes after SPT by photography and by transferring the ballpoint pen-surrounded wheal area with a scotch tape to paper.

[4] = all 60 birch pollen allergic patients

B1: rBet v 1: purified recombinant Bet v 1, major birch pollen allergen, purchased from BIOMAY (protein)
chain: GVFNYETETTSVIPAARLFKAFILDGDNLFPKVAPQAISSVENIEGNGGPGTIKKISFPEGFPFKYVKDRVDEVDHTNFKYNYSVIEGGPIGDTLEKISNEIKIVATPDGGSILKISNKYHTKGDHEVKAEQVKASKEMGETLLRAVESYLLAHSDAYN
Question: What does the source list for B1?
Answer: induction of histamine release [1]: dose-dependent release of histamine; rBet v1-specific IgE antibodies, mean [2, 4]: 1.416 OD units; rBet v1-specific IgE antibodies, range [2, 4]: 0.081-2.530 OD units; IgE (OD) ([2]; serum of NHS, non-allergic control individual): 0.048 OD; IgE (OD) ([2]; serum of patient 1): 0.829 OD; IgE (OD) ([2]; serum of patient 2): 1.380 OD; IgE (OD) ([2]; serum of patient 3): 2.144 OD; IgE (OD) ([2]; serum of patient 4): 0.701 OD; IgE (OD) ([2]; serum of patient 5): 0.344 OD; IgE (OD) ([2]; serum of patient 6): 2.300 OD; IgE (OD) ([2]; serum of patient 7): 2.245 OD; IgE (OD) ([2]; serum of patient 9): 0.196 OD; IgE (OD) ([2]; serum of patient 10): 0.097 OD; IgE (OD) ([2]; serum of patient 11): 0.428 OD; IgE (OD) ([2]; serum of patient 12): 0.271 OD; IgE (OD) ([2]; serum of patient 13): 0.281 OD; IgE (OD) ([2]; serum of patient 14): 0.704 OD; IgE (OD) ([2]; serum of patient 20): 0.249 OD; IgE (OD) ([2]; serum of patient 21): 0.461 OD; IgE (OD) ([2]; serum of patient 22): 0.258 OD; IgE (OD) ([2]; serum of patient 23): 1.555 OD; IgE (OD) ([2]; serum of patient 25): 0.5 OD; IgE (OD) ([2]; serum of patient 26): 0.191 OD; IgE (OD) ([2]; serum of patient 27): 0.535 OD; IgE (OD) ([2]; serum of patient 28): 0.492 OD; IgE (OD) ([2]; serum of patient 29): 0.154 OD; IgE (OD) ([2]; serum of patient 30): 0.081 OD; IgE (OD) ([2]; serum of patient 32): 0.195 OD; IgE (OD) ([2]; serum of patient 33): 0.106 OD; IgE (OD) ([2]; serum of patient 34): 0.377 OD; IgE (OD) ([2]; serum of patient 36): 0.306 OD; IgE (OD) ([2]; serum of patient 38): 1.571 OD; IgE (OD) ([2]; serum of patient 40): 0.084 OD; IgE (OD) ([2]; serum of patient 43): 0.363 OD; IgE (OD) ([2]; serum of patient 44): 2.386 OD; IgE (OD) ([2]; serum of patient 45): 0.289 OD; IgE (OD) ([2]; serum of patient 47): 0.381 OD; IgE (OD) ([2]; serum of patient 48): 1.422 OD; IgE (OD) ([2]; serum of patient 49): 0.379 OD; IgE (OD) ([2]; serum of patient 51): 0.307 OD; IgE (OD) ([2]; serum of patient 54): 1.310 OD; IgE (OD) ([2]; serum of patient 55): 2.489 OD; IgE (OD) ([2]; serum of patient 56): 2.530 OD; IgE (OD) ([2]; serum of patient 57): 0.741 OD; IgE (OD) ([2]; serum of patient 58): 0.072 OD; IgE (OD) ([2]; serum of patient 59): 0.168 OD; concentration inducing immediate type skin reactions in three patients (#1-3) ([3]; human, in vivo): < 0.78 µg/mL; concentration sufficient to induce wheal reactions in all five birch pollen allergic patients ([3]; human, in vivo): 3.12 µg/mL; mean wheal diameter ([3]; individual 1, rBet v 1 0.39 μg/ml): 2.5 mm; mean wheal diameter ([3]; individual 1, rBet v 1 0.78 μg/ml): 4 mm; mean wheal diameter ([3]; individual 1, rBet v 1 1.56 μg/ml): 4.5 mm; mean wheal diameter ([3]; individual 1, rBet v 1 3.12 μg/ml): 5 mm; mean wheal diameter ([3]; individual 1, rBet v 1 6.25 μg/ml): 6 mm; mean wheal diameter ([3]; individual 1, rBet v 1 12.5 μg/ml): 13 mm; mean wheal diameter ([3]; individual 2, rBet v 1 0.39 μg/ml): 2 mm; mean wheal diameter ([3]; individual 2, rBet v 1 0.78 μg/ml): 3.5 mm; mean wheal diameter ([3]; individual 2, rBet v 1 1.56 μg/ml): 5 mm; mean wheal diameter ([3]; individual 2, rBet v 1 3.12 μg/ml): 5.5 mm; mean wheal diameter ([3]; individual 2, rBet v 1 6.25 μg/ml): 7 mm; mean wheal diameter ([3]; individual 2, rBet v 1 12.5 μg/ml): 7.5 mm; mean wheal diameter ([3]; individual 2, rBet v 1 25 μg/ml): 8 mm; mean wheal diameter ([3]; individual 3, rBet v 1 0.78 μg/ml): 2 mm; mean wheal diameter ([3]; individual 3, rBet v 1 1.56 μg/ml): 3 mm; mean wheal diameter ([3]; individual 3, rBet v 1 3.12 μg/ml): 4 mm; mean wheal diameter ([3]; individual 3, rBet v 1 6.25 μg/ml): 6 mm; mean wheal diameter ([3]; individual 3, rBet v 1 12.5 μg/ml): 6.5 mm; mean wheal diameter ([3]; individual 3, rBet v 1 25 μg/ml): 8 mm; mean wheal diameter ([3]; individual 4, rBet v 1 3.12 μg/ml): 2 mm; mean wheal diameter ([3]; individual 4, rBet v 1 6.25 μg/ml): 3 mm; mean wheal diameter ([3]; individual 4, rBet v 1 12.5 μg/ml): 4 mm; mean wheal diameter ([3]; individual 4, rBet v 1 25 μg/ml): 4.5 mm; mean wheal diameter ([3]; individual 5, rBet v 1 1.56 μg/ml): 2 mm; mean wheal diameter ([3]; individual 5, rBet v 1 3.12 μg/ml): 2.5 mm; mean wheal diameter ([3]; individual 5, rBet v 1 6.25 μg/ml): 4 mm; mean wheal diameter ([3]; individual 5, rBet v 1 12.5 μg/ml): 11 mm; mean wheal diameter ([3]; individual 5, rBet v 1 25 μg/ml): 5 mm
